Laboratory results: IntAct's records for PubMed 32637409

B1: Mitochondrial Rho GTPase 1 (Homo sapiens), Q8IXI2 (parent)
chain: MKKDVRILLVGEPRVGKTSLIMSLVSEEFPEEVPPRAEEITIPADVTPERVPTHIVDYSEAEQSDEQLHQEISQANVICIVYAVNNKHSIDKVTSRWIPLINERTDKDSRLPLILVGNKSDLVEYSSMETILPIMNQYTEIETCVECSAKNLKNISELFYYAQKAVLHPTGPLYCPEEKEMKPACIKALTRIFKISDQDNDGTLNDAELNFFQRICFNTPLAPQALEDVKNVVRKHISDGVADSGLTLKGFLFLHTLFIQRGRHETTWTVLRRFGYDDDLDLTPEYLFPLLKIPPDCTTELNHHAYLFLQSTFDKHDLDRDCALSPDELKDLFKVFPYIPWGPDVNNTVCTNERGWITYQGFLSQWTLTTYLDVQRCLEYLGYLGYSILTEQESQASAVTVTRDKKIDLQKKQTQRNVFRCNVIGVKNCGKSGVLQALLGRNLMRQKKIREDHKSYYAINTVYVYGQEKYLLLHDISESEFLTEAEIICDVVCLVYDVSNPKSFEYCARIFKQHFMDSRIPCLIVAAKSDLHEVKQEYSISPTDFCRKHKMPPPQAFTCNTADAPSKDIFVKLTTMAMYPHVTQADLKSSTFWLRASFGATVFAVLGFAMYKALLKQR
partner: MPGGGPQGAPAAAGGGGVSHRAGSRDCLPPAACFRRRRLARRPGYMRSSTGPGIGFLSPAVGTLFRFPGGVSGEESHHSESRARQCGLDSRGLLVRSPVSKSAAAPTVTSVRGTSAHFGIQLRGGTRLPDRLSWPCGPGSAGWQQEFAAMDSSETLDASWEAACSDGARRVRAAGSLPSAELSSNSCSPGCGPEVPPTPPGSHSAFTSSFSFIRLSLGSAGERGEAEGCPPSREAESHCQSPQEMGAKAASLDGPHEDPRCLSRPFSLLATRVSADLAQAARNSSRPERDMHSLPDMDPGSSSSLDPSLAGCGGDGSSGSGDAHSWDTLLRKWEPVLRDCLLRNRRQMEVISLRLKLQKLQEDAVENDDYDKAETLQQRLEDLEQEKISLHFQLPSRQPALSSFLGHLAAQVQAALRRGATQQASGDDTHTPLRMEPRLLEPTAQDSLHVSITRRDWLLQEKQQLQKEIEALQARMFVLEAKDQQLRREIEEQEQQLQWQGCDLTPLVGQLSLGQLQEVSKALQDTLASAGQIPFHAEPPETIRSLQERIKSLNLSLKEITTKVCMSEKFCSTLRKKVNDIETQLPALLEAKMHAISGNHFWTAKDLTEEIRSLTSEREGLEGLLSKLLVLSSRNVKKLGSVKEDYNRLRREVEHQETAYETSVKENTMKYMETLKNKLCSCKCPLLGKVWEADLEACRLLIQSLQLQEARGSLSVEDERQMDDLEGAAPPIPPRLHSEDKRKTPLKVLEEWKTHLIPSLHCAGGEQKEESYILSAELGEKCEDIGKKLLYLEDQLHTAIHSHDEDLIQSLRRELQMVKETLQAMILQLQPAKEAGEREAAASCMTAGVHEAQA

Variants of: B1
Conditions: with disc1_human DISC1, Q9NRI5

| effect of a mutation on the interaction | Variant |
| --- | --- |
| increasing interaction | P13V |
| with no effect | T18N |
